For assay [1], the target named is CR pairs of the second ligand-binding domain of human LRP1. As to conditions: all pairs except CR9-CR10; read-out: affinity of adjacent CR pairs for RAP d3; cited from earlier work.
For assay [2], the target named is LRP1 CR3-5 (Homo sapiens, UniProt Q07954). Put plainly: Binding of RAP d3 / MegaRAP1 d3 variants to LRP1 CR3-5. As to conditions: in words. From the text:
FIG. 1A-B depict binding of RAP d3, MegaRAP1 d3 (RAPv2A d3) and intermediate sequence variants to LRP2 CR89 and LRP1 CR3-5. FIG. 1A illustrates binding of RAP d3 mutants and RAPv2A d3 revertants to LRP2 CR89. FIG. 1B illustrates binding of RAP d3 mutants and RAPv2A d3 revertants to LRP1 CR3-5. Data were plotted and fitted by non-linear regression with the assumption of a single binding site (GraphPad Prism). Kd values with standard deviations were derived from the regression analysis.
Percent of maximum binding is the ratio of the OD at the highest concentration tested for each ligand and the highest OD measured for all such ligands at that concentration.

Chain of LRP1 CR3-5 (Q07954 852-973 limits assumed): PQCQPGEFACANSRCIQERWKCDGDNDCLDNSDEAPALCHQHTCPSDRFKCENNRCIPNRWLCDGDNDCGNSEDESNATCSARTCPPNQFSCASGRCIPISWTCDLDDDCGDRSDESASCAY

B1: RAP d3: third domain (d3) of receptor-associated protein, amino acids 200-323 of mature RAP; row 'RAP' of Table 2 (protein, listed as Homo sapiens)
chain: LDRLRRVSHQGYSTEAEFEEPRVIDLWDLAQSANLTDKELEAFREELKHFEAKIEKHNHYQKQLEIAHEKLRHAESVGDGERVSRSREKHALLEGRTKELGYTVKKHLQDLSGRISRARHNEL
Turning to B1, in assay [1], the Kd is 1 to 5 nM.

B2: MegaRAP1: RAPd3 variant; Table 2 positions 213 T, 217 K, 249 Y, 251 K, 256 A, 270 E (protein)
chain: GLDRLRRVSHQGYTTEAKFEEPRVIDLWDLAQSANLTDKELEAFREELKYFKAKIEAHNHYQKQLEIAHEELRHAESVGDGERVSRSREKHALLEGRTKELGYTVKKHLQDLSGRISRARHNEL
For the molecule B2, the “binding to LRP1 CR domains” value in assay [2] is listed as “fails to bind LRP1 CR domains”.

Source of the values: patent US8795627B2, “Treatment of liver disorders by administration of RAP conjugates” (Raptor Pharmaceuticals Inc., priority 2007, dated 2014).
